Test results from patent US20240376151A1, “STAPLED PEPTIDES AND METHODS THEREOF” (FOG PHARMACEUTICALS, INC., priority 2022, published 2024).
Numbered stars: 1 amine (or outer) side, 2 acyl side, 3 side chain; on linkers, the order of the positions; unused ones are H or OH. Bridge positions count the residues as written; N and C are the ends. Ends that are not written are not given here. Phenylene(1,4-NHCOCH2)2 = O=C(C[*:1])Nc1ccc(NC(=O)C[*:2])cc1

Target: T1, WWP2^HECT (Homo sapiens, UniProt O00308)
T1 construct: GST-TEV (N, cleaved yes); made in house; host or cells: Escherichia coli BL21 (DE3)
Test: Naive Library Presenter Screening (phage, NGS), WWP2^HECT
Format: binding
Conditions: for interaction data at Target Concentration 10: WWP2 target concentration 10 nM; for interaction data at Target Concentration 100: WWP2 target concentration 100 nM; for interaction data at Target Concentration 300: WWP2 target concentration 300 nM; for interaction data at Target Concentration 1000: WWP2 target concentration 1000 nM; for interaction data at Target Concentration 30: WWP2 target concentration 30 nM

T1 sequence (O00308 492-865): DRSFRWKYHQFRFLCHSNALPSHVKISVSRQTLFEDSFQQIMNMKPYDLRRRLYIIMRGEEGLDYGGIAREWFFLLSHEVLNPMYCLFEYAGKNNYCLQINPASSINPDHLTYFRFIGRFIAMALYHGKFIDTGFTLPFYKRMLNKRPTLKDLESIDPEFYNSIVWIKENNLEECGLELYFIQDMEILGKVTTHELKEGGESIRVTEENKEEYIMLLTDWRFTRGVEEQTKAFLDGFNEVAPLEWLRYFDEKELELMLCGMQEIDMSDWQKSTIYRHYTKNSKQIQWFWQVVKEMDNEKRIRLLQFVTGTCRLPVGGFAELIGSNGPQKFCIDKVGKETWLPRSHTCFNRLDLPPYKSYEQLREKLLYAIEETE

Sequence	interaction data at Target Concentration 10	interaction data at Target Concentration 100	interaction data at Target Concentration 300	interaction data at Target Concentration 1000 (first column)	interaction data at Target Concentration 1000 (second column)	interaction data at Target Concentration 30
DPAAWDCRYAALACYIH (linker 7-14 via Phenylene(1,4-NHCOCH2)2 (inferred))	0	2	11	66	34	–
DPAIHSCYAAAETCQFF (linker 7-14 via Phenylene(1,4-NHCOCH2)2 (inferred))	43	89	139	127	194	87
DPAIQNCRSAADVCMFF (linker 7-14 via Phenylene(1,4-NHCOCH2)2; not fully specified (C-terminus))	0	96	109	117	127	65
DPAIWDCLYAATNCYIN (linker 7-14 via Phenylene(1,4-NHCOCH2)2; not fully specified (C-terminus))	0	0	8	12	20	0
DPALIHCRAAADTCAFW (linker 7-14 via Phenylene(1,4-NHCOCH2)2; not fully specified (C-terminus))	87	384	608	419	565	318
DPALLHCMAAAQTCSFF (linker 7-14 via Phenylene(1,4-NHCOCH2)2; not fully specified (C-terminus))	0	26	37	59	123	47
DPALWECMTAADWCMFM (linker 7-14 via Phenylene(1,4-NHCOCH2)2; not fully specified (C-terminus))	1	17	18	28	32	24
DPALWECRNAAWQCWMH (linker 7-14 via Phenylene(1,4-NHCOCH2)2; not fully specified (C-terminus))	0	0	24	35	27	0
DPALWHCLAAAETCAMF (linker 7-14 via Phenylene(1,4-NHCOCH2)2; not fully specified (C-terminus))	4	24	49	47	76	38
DPAMWDCRYAALDCYMT (DPAMWDCRYAALDCYMT-NH2; linker 7-14 via Phenylene(1,4-NHCOCH2)2; N-terminus assumed; SMILES CSCC[C@H](NC(=O)[C@H](C)NC(=O)[C@@H]1CCCN1C(=O)[C@@H](N)CC(=O)O)C(=O)N[C@@H](Cc1c[nH]c2ccccc12)C(=O)N[C@@H](CC(=O)O)C(=O)N[C@H]1CSCC(=O)Nc2ccc(cc2)NC(=O)CSC[C@@H](C(=O)N[C@@H](Cc2ccc(O)cc2)C(=O)N[C@@H](CCSC)C(=O)N[C@H](C(N)=O)[C@@H](C)O)NC(=O)[C@H](CC(=O)O)NC(=O)[C@H](CC(C)C)NC(=O)[C@H](C)NC(=O)[C@H](C)NC(=O)[C@H](Cc2ccc(O)cc2)NC(=O)[C@H](CCCNC(=N)N)NC1=O)	0	6	23	62	24	0
DPAMWSCRYAAWECWVL (DPAMWSCRYAAWECWVL-NH2; linker 7-14 via Phenylene(1,4-NHCOCH2)2; N-terminus assumed; SMILES CSCC[C@H](NC(=O)[C@H](C)NC(=O)[C@@H]1CCCN1C(=O)[C@@H](N)CC(=O)O)C(=O)N[C@@H](Cc1c[nH]c2ccccc12)C(=O)N[C@@H](CO)C(=O)N[C@H]1CSCC(=O)Nc2ccc(cc2)NC(=O)CSC[C@@H](C(=O)N[C@@H](Cc2c[nH]c3ccccc23)C(=O)N[C@H](C(=O)N[C@@H](CC(C)C)C(N)=O)C(C)C)NC(=O)[C@H](CCC(=O)O)NC(=O)[C@H](Cc2c[nH]c3ccccc23)NC(=O)[C@H](C)NC(=O)[C@H](C)NC(=O)[C@H](Cc2ccc(O)cc2)NC(=O)[C@H](CCCNC(=N)N)NC1=O)	0	0	8	7	28	0
DPANWDCQQAAWLCIIQ (DPANWDCQQAAWLCIIQ-NH2; linker 7-14 via Phenylene(1,4-NHCOCH2)2; N-terminus assumed; SMILES CC[C@H](C)[C@H](NC(=O)[C@@H]1CSCC(=O)Nc2ccc(cc2)NC(=O)CSC[C@H](NC(=O)[C@H](CC(=O)O)NC(=O)[C@H](Cc2c[nH]c3ccccc23)NC(=O)[C@H](CC(N)=O)NC(=O)[C@H](C)NC(=O)[C@@H]2CCCN2C(=O)[C@@H](N)CC(=O)O)C(=O)N[C@@H](CCC(N)=O)C(=O)N[C@@H](CCC(N)=O)C(=O)N[C@@H](C)C(=O)N[C@@H](C)C(=O)N[C@@H](Cc2c[nH]c3ccccc23)C(=O)N[C@@H](CC(C)C)C(=O)N1)C(=O)N[C@H](C(=O)N[C@@H](CCC(N)=O)C(N)=O)[C@@H](C)CC)	0	0	8	7	27	0
DPAQDTCRAAADTCAFF (DPAQDTCRAAADTCAFF-NH2; linker 7-14 via Phenylene(1,4-NHCOCH2)2; N-terminus assumed; SMILES C[C@@H]1NC(=O)[C@H](C)NC(=O)[C@H](CCCNC(=N)N)NC(=O)[C@@H](NC(=O)[C@@H](NC(=O)[C@H](CC(=O)O)NC(=O)[C@H](CCC(N)=O)NC(=O)[C@H](C)NC(=O)[C@@H]2CCCN2C(=O)[C@@H](N)CC(=O)O)[C@@H](C)O)CSCC(=O)Nc2ccc(cc2)NC(=O)CSC[C@@H](C(=O)N[C@@H](C)C(=O)N[C@@H](Cc2ccccc2)C(=O)N[C@@H](Cc2ccccc2)C(N)=O)NC(=O)[C@H]([C@@H](C)O)NC(=O)[C@H](CC(=O)O)NC(=O)[C@H](C)NC1=O)	8	267	241	232	373	159
DPAQNMCQAAADVCMFF (DPAQNMCQAAADVCMFF-NH2; linker 7-14 via Phenylene(1,4-NHCOCH2)2; N-terminus assumed; SMILES CSCC[C@H](NC(=O)[C@H](CC(N)=O)NC(=O)[C@H](CCC(N)=O)NC(=O)[C@H](C)NC(=O)[C@@H]1CCCN1C(=O)[C@@H](N)CC(=O)O)C(=O)N[C@H]1CSCC(=O)Nc2ccc(cc2)NC(=O)CSC[C@@H](C(=O)N[C@@H](CCSC)C(=O)N[C@@H](Cc2ccccc2)C(=O)N[C@@H](Cc2ccccc2)C(N)=O)NC(=O)[C@H](C(C)C)NC(=O)[C@H](CC(=O)O)NC(=O)[C@H](C)NC(=O)[C@H](C)NC(=O)[C@H](C)NC(=O)[C@H](CCC(N)=O)NC1=O)	2	51	125	120	127	67
